Results: the DeepSol protein solubility set

assay: soluble on expression in E. coli; label from the status in PepcDB or PDB records

Row | Sequence | soluble on expression in E. coli
1 | MGSDKIHHHHHHMNYKTLVMKILIINQHSMNHGDEAAGKALIRTLYDRGFQDIAVSYNMNDFDASCLFKYKNVKQILPTKKKARGLDKITKLYLKCPCFITRFLTLMYLQRRREVKMIKEANIVISAPGGVNMGLYRDYGYVWRLKEVLYQGKSLVIYSPSIGPFTTNDFFRKIAKEILTRSTFVSLRDTQSYRYAEDLSVHYIQSIDTAYLETPRMDLPLELLNLLPKEYVVLVPNELYSWHIDYFHYDKRSIDRFYSSLIDKFTSNGLTVVLLPQLFYQPNMEDEDYFNRLKAENEKVIVIPTYYDSDIQQAIIKRAQFVVGARYHTIVFSINNETPFVCLSYEHKMKNMLEILSLDSYSIDISYAFENHKIVIDKIWKMYLDRVSVLNVLYDGKKKAKLLARKTFDFLIKKLRSM | not soluble
2 | MGSDKIHHHHHHMPEPDPLRIKTFTTPKDLGEWLKVNHGSERELWVKIYKKNTGIESVTWNDVVIEVLCWGWIDGIKKSIDDQAYLQRITPRKMRSNWSKRNTEHAERLISEERMMESGLVHIRAAKSDGRWENAYVVSEMEVPADFLAALENKSNAKAFFETLNKSSRYVIAYGLISAKKPETRLRRFEKFMNMLVHEEKPK | not soluble
3 | MGSDKIHHHHHHMPFLEIRLTKESGRIYEEHSHPMLSIGVMLEGETQFFLQGEEFRLQTGMLAVIPPRMAHACNPLPSQTRSYFILHLSLDFCLEIQGRLFNEGGQNLLPLRAPRIFDPMMYQGLTSLIQSLLKGYDSLKGEAFWGWCERFFARYTLEVSSRGDALISEVAEYLEGDVEEASLAFLSKRFQINPYTLERRFKKAYGTTPKRYHTDARLHRLKKLLRQGIPLALCAQYGGFSDQSHFQRFFKRRVALTPREYQLNFVQ | not soluble
4 | MGSDKIHHHHHHMPIYVYWGEDDFAMEKAIAVLRDHVLDPNWISFNYTAFTPDQADAAIQALNQVMTPTFGAGGRLVWLINTTLYQHCPENVLAELVRSLSVIPENSFLLLSSRNKPDERLKSTKLLKQFATEFREFPLIPPWKTELLVQSVNQVAQTVGVKLTANTAQLLAESVGNDTRLLYNEIEKLRLYAYGSNKPLDVDTVTKLVRNTTQNSLQLAAAIRIGDTAKALTTLADMINASEPGLRIVATLIGQFRTWLWVKIMIESGERNQQAIAIAADIGNPKRIYFLQQEIKLLSVQQLISCLPLLLELEVSLKQGASEMSTFQTKVIELCQVCQGS | not soluble
5 | MGSDKIHHHHHHMPKKSFAQDCLYTAIMRLMREKDVDDITVKELVLKAGVARSTFYRYYTQPMDVLRDYLRPFNHGNAHLDDKDDKKVYLRRFYQYYTGHSELIYTLVQANKTEFLRETISCHILEVFSPMMTNKGVSPFLQKASVGLCVETLILWIVNDRKEKIEEMTDTVHNMVAVVERVS | not soluble
6 | MGSDKIHHHHHHMPKPTKIVVLLKGYPRLSETFIAQELLGLEQAGFALELVAMRRPTDKKRHPVHDEIQAPVHYLPEYLHEEPGRVLKALWAVRRLPGFRPVLTQFFKDLRRDFSRNRFRRLGQAMVLVAEWPGKADWLHAHFIHTPASVAFYASLLGSRGFSVSAHAKDIWTSESWDLADKLAHATWVVTCTKVGFDRLSALADGRGSVHLSYHGLDLDRFPHFEGVRPARDGSDTADPLRLLSVGRAVKKKGYDVLLRALSALPADLNWHFTHIGGGDELVRLQALADQLGIASRITWKGAMDQRDVLTHYRDSDLFTLACRITADGDRDGLPNVLVEAASQGLMPVSTTVSGISELFVDGENGLLVEPDDAQALAVALEKAMRDPALRARLGSAAEGKVRRDFDYRNSIRDLTDLFSGRQ | not soluble
7 | MGSDKIHHHHHHMPKRRLPSLNALRAFESAARNQSMTRAAEELCVTHSAISRHVAKLEDYLNAKLFERGHQQVVLTKRGAAYASRLQVLFDQIQDVTAEYFYARPDNASLRIGVLSTFAMRFLIPRLARFKKLYPEITLQVESAHEHVSPRDEEVDVAIWFGNGDWPGLVSEHLFHEELVPVGSPTLLAGHELGNPDDLESFLLLHAAARHDDWQRWLSATGATRVDGYKGLKLEYSGLAYQGAVDGLGLAMAQTLFVQEDLANRRLVAALPQRVKTGRSYYLVHNEMKSEQPVILRFSEWLKDEVRKTIEEIDRTQAEHIEVV | not soluble
